± gives the half width of the 95% confidence interval.
Assays:
[1] = folding stability dG unfold from chymotrypsin proteolysis; higher = more stable
Procedure, shortened: (§1)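 Only designs with AlphaFold2 dimer inter-PAE above 15 were retained; each was a mini-protein under 80 residues with no cysteine, in a PA-tagged cDNA display construct. After digestion with trypsin and chymotrypsin and sequencing, K50 was inferred by Bayesian fitting of counts, and unfolding free energy was derived per protease or combined against a sequence-predicted unfolded-state K50 and a shared folded-state K50.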

[2] = folding stability dG unfold (combined trypsin and chymotrypsin); higher = more stable
Procedure, shortened: as §1

[3] = folding stability dG unfold from trypsin proteolysis; higher = more stable
Procedure, shortened: as §1

| Sequence | folding stability dG unfold [1] [kcal/mol] | folding stability dG unfold [2] [kcal/mol] | folding stability dG unfold [3] [kcal/mol] |
| --- | --- | --- | --- |
| SAGGSAGGSMKVEIKFPDGSVKTIPLSPEEPDVPPEALVKELGADNVTITYYTPDGVPINLGISAGGSAGGS [r12_411_JUSTAS] | 0.916 ± 0.03 | 0.706 ± 0.053 | 0.297 ± 0.058 |
| SAGGSAGGSMKVVKVELTLTGPGGEVTYLEEEIEVPEDELGEIEVSLPDENLSYEVTVEVIEESAGGSAGGS [r12_354_JUSTAS] | 1.41 ± 0.071 | 1.12 ± 0.18 | 0.444 ± 0.12 |
| SAGGSAGGSMLEEKIKQVPKSEKATITIKVKNENGKWKVVTVEVTYIEGKNEYEVKITITPEPGSAGGSAGG [r6_545_JUSTAS] | 3.04 ± 0.18 | 2.29 ± 0.3 | 1.73 ± 0.2 |
| SAGGSAGGSMLVLHLPNGKEIPIPPGEFSEDTGVEDIAARIPPEVRRLRIYNEDGTEVEVPIDSAGGSAGGS [r20_161_TrMRF] | 0.479 ± 0.39 | 0.32 ± 0.18 | 0.00521 ± 0.4 |
| SAGGSAGGSMPFKIDVEVERHPEDNMYQVEITFPGNREIPIMVDDPSDPEKAKNIAKEFAKQLSAGGSAGGS [r12_1012_TrROS] | -0.648 ± 0.7 | -0.0883 ± 0.13 | 0.13 ± 0.082 |
| SAGGSAGGSMPTLRVKIEVTNPDGEKLELTITVPRDMTLEELKALAEELAKAGYEVRIVEVEPSAGGSAGGS [r12_804_TrROS_Hall] | 2.83 ± 0.069 | 3.19 ± 0.17 | 3.61 ± 0.15 |
| SAGGSAGGSMPVKRELIITVTEPSSGTTRTLVVEVETEEEAEAVVAAVAAVPDRTVTEVRRLASAGGSAGGS [r12_152_JUSTAS] | 1.26 ± 0.022 | 0.926 ± 0.057 | 0.109 ± 0.083 |
| SAGGSAGGSMPVKVITTISRETVPLPNGDPGARYTVTTTVTTDSTVVSTTTTTFSSEAELAAASAGGSAGGS [r12_461_JUSTAS] | 0.854 ± 0.12 | 0.894 ± 0.084 | 1.08 ± 0.035 |
| SAGGSAGGSMRIKTIKVIPQDDGMYSINITFPGVEREIPIPPQMPPDQITEIEIPIYFDGEPPSAGGSAGGS [r12_673_TrROS] | 0.436 ± 0.12 | 0.212 ± 0.097 | -0.257 ± 0.16 |
| SAGGSAGGSMRLTVEVSSLEEAEKLAEEIEERFDVEIVRVEVEETEEGGLRVTFDVKLHPDLGSAGGSAGGS [r12_577_TrMRF] | 2.94 ± 0.098 | 2.82 ± 0.18 | 2.96 ± 0.16 |
| SAGGSAGGSMRTLKARITLRGPDGVEYRFEFEIPAGSAEDVVAFLKNLPVPPGWEVELEVLDESAGGSAGGS [r20_162_TrMRF] | 5.54 ± 0.088 | 5.44 ± 0.1 | 4.42 ± 0.16 |
| SAGGSAGGSMRVEITEVKEVRGEGGEPRYLVTVRITVPDGKEETFVYEFKTPEELEKLEVELPSAGGSAGGS [r20_130_JUSTAS] | 3.37 ± 0.038 | 3.13 ± 0.061 | 2.55 ± 0.062 |
| SAGGSAGGSMSKPVKITTTRDPNSNVITIQVESEEDVIEFAKKKGINIKIEPTSENTYKLTLESAGGSAGGS [r12_810_JUSTAS] | -0.0494 ± 0.36 | 0.113 ± 0.21 | 0.0305 ± 0.079 |
| SAGGSAGGSMSTTETTVTEVTITVRSDGKVSREVKVTVTTTTTITPAGGTATVTTTTTRTPLESAGGSAGGS [r12_409_JUSTAS] | 1.3 ± 0.018 | 1.19 ± 0.051 | 1.01 ± 0.053 |
| SAGGSAGGSMSTVSTVTHPDGTPLTVTTTPLPDGTVLATYSAPDGTVVATFDVSTGTTVVVPLSAGGSAGGS [r20_159_JUSTAS] | 1.5 ± 0.079 | 1.44 ± 0.074 | 1.39 ± 0.067 |
| SAGGSAGGSMTAEEIAEKFPGLPPEQIKNIPIERHPDGYMTVNIEHRGPNGNKQEQQVEIPVDSAGGSAGGS [r12_1050_TrROS] | 0.505 ± 0.037 | 0.483 ± 0.16 | 0.509 ± 0.04 |
| SAGGSAGGSMTETVEKAPDGTPVLVLKETEESTGDGGKTILRPSTVLLPPGTVLSTEDEVILESAGGSAGGS [r12_581_JUSTAS] | 1.83 ± 0.071 | 1.52 ± 0.072 | 0.944 ± 0.069 |
| SAGGSAGGSMTFRVEVFNKKTGKVETIEVEGSLDELKALAPPGALVKIEVDGKTITIPAEELKSAGGSAGGS [r20_36_TrROS_Hall] | 1.75 ± 0.059 | 1.74 ± 0.057 | 1.67 ± 0.021 |

| Sequence | folding stability dG unfold [1] [kcal/mol] | folding stability dG unfold [2] [kcal/mol] | folding stability dG unfold [3] [kcal/mol] |
| --- | --- | --- | --- |
| SAGGSAGGSMTIEEIKKLAEELGIEKVEIEKVKDGYYKIKIYNKKTGKKIEIIIKVNKDGKIVSAGGSAGGS [r12_170_TrROS_Hall] | 3.9 ± 0.091 | 3.61 ± 0.26 | 2.27 ± 0.17 |
| SAGGSAGGSMTIPESEFKQMSEEELKKLLLENPEPVTVVTSDPEILERIKKIFEKLGIKITLESAGGSAGGS [r12_97_JUSTAS] | 2.63 ± 0.12 | 2.59 ± 0.14 | 2.4 ± 0.11 |
| SAGGSAGGSMTITVTKVDFPPGLYEGLTIEELRKLLGDENLPIKETPVTVTVTPEKLAALLLSSAGGSAGGS [r12_178_JUSTAS] | 0.778 ± 0.08 | 1.36 ± 0.096 | 1.69 ± 0.036 |
| SAGGSAGGSMTITYDPVSNTYTVNLSLEGGTKTYTVPSLEALKATLKAEGLPWGPPPITTVSASAGGSAGGS [r12_834_JUSTAS] | 5.05 ± 0.063 | 4.96 ± 0.079 | 3.43 ± 0.08 |
| SAGGSAGGSMTIVIPKKTLEKMKPETIKKLLELAKELNTTITMNENAITIPVGKGTEEALKALSAGGSAGGS [r12_945_TrMRF] | 1.05 ± 0.025 | 1.28 ± 0.073 | 1.5 ± 0.07 |
| SAGGSAGGSMTPANVVRIEPSPDGILRVTLTHPDGTVTTVEVSPDNLDIGAPDNVTDVTLAPVSAGGSAGGS [r20_194_TrMRF] | 1.72 ± 0.023 | 1.44 ± 0.028 | 0.932 ± 0.026 |
| SAGGSAGGSMTTTVERSPSGKTTVTETETRKDAAGNEYTLVTTTTFDPNTTTSTTTTTVVPVSSAGGSAGGS [r12_57_JUSTAS] | 1.64 ± 0.048 | 1.51 ± 0.086 | 1.07 ± 0.062 |
| SAGGSAGGSMTVTYTEVGDQLVVTTPDGRRYVITLSGDVTYDPATGTVTVPPGETMTPVPVPASAGGSAGGS [r20_158_JUSTAS] | 2.13 ± 0.025 | 1.99 ± 0.039 | 1.61 ± 0.021 |
| SAGGSAGGSMVEEFLASLPPDATVTVDPSTGVVTVSLPAEGRTLTLTVDTATGTVTETERRPESAGGSAGGS [r12_82_JUSTAS] | 1.762 ± 0.0075 | 1.71 ± 0.027 | 1.56 ± 0.028 |
| SAGGSAGGSMVIRVTVKLPNGEEKVFEIEVSEEELKNMSIEELKKLAEELGLPEDVKIELVPPSAGGSAGGS [r12_742_TrROS_Hall] | 3.29 ± 0.17 | 3.33 ± 0.19 | 3.29 ± 0.12 |
| SAGGSAGGSMVITVDPSLSPEEAVERAKEEVKKEVPESEPVEVTVVIKDPETGKTTEIPVKLDSAGGSAGGS [r12_1051_JUSTAS] | -1.17 ± 0.23 | 0.187 ± 0.26 | 0.739 ± 0.047 |
| SAGGSAGGSMVTIPTGTEEEVEKVIAELEKKGLKPKKVEKEGNKVTVEFPDGTKVELIIEPGKSAGGSAGGS [r20_93_JUSTAS] | 2.36 ± 0.14 | 1.95 ± 0.099 | 1.06 ± 0.058 |
| SAGGSAGGSMYKVEIEIETSPEGGITIKVTIIPPDGSVIEGNLTPEEVAKRFGFPPPEILELLSAGGSAGGS [r20_235_JUSTAS] | 3.03 ± 0.062 | 2.48 ± 0.14 | 2.21 ± 0.049 |
| SAGGSAGGSMYVVRAVIRRPKAVPPPLAEEEIDIPVADREITAEEIARLFTPPGYELVRIEADSAGGSAGGS [r12_611_TrMRF] | -0.36 ± 0.24 | -0.225 ± 0.14 | -0.177 ± 0.19 |
| SAGGSAGGSNEKKYIYRAKITIPGKEGEKPFEIEFESEEEVIELVEKLFPKENIKLEVEKFELDSAGGSAGG [r6_113_TrMRF] | 2.51 ± 0.12 | 2.33 ± 0.15 | 1.83 ± 0.1 |
| SAGGSAGGSNELLKKLGLKPDQTILVLARPGEIEKLRKEKPIKRIEVTPLPDDLYLYRIEVEGSAGGSAGGS [r12_750_TrMRF] | 0.095 ± 0.38 | 0.192 ± 0.19 | -0.0878 ± 0.16 |
| SAGGSAGGSNKLVKELAKDPNIKSIFVDTKNKKVYILTDNYLIVIDKNGKIEKIEPISPEKLKSAGGSAGGS [r12_895_TrMRF] | 1.26 ± 0.15 | 1.16 ± 0.17 | 0.446 ± 0.098 |
| SAGGSAGGSNLPAGQEIWFPIEIRIEMEMPVRDNGEPIWRMRMTMEHTIMLSIKVKPASPEDASAGGSAGGS [r20_14_TrROS] | 5.11 ± 0.38 | 4.88 ± 0.43 | 3.75 ± 0.31 |

Source: the supplement of paper PMC12764529
